Patent publication US20130045206A1 (published 2013)

B1: scFv-3TF2 (scFv)
scFv: QVQLQQSGGGVVQPGGSLRLSCAASEFTFSASGMHWVRQAPGKGLEWMAFIAYDGNQKFYADSVKGRFTISRDNSKNTLYLQMDSLRGEDTAVYYCAKEMQREGYFDYWGQGTLVTVSSGGGGSGGGGSGGGGSNFMLTQDPAVSVALGQTVRITCQGDSLRSYYASWYQQKPGQAPVLVIYGKNNRPSGIPDRFSGSKSGNSASLDISGLQSEDEADYYCATWDDNLSGPIFGGGTKVTVLG
notes: Monovalent human scFv, about 28 kDa; on phage or soluble depending on the assay; tags not described; also called anti-TfR scFv
B2: scFv-3TF12 (scFv)
scFv: QVQLQESGGGLVQPGGSLRLSCAASGFSFNTYTMHWVRQAPGKGLEWVADIAYDGSTKYYADSVKGRFTISRDNAKNSLYLQMNSLRAEDTAVYYCARDAVAGEGYFDLWGRGTLVTVSSGGGGSGGGGSGGGGSQSALTQDPAVSVALGQTVRITCQGDSLRSYYASWYQQLPGTAPKLLIYRNNQRPSGVPDRFSGSKSGTSASLAISGLRSEDEADYYCAAWDDSLSAWVFGGGTKLTVLGA
B3: F12-Fc (Fc fusion)
chain: B2 scFv
notes: Homodimer of about 110 kDa (2 x 55 kDa), made in CHO cells; also called scFv-F12-Fc; antibody F12 in the format scFv-Fc; not shown: constant CH2 and CH3 domains of a human IgG1 (vector pFuse-hG1)
B4: F12CH (other)
scFv: B2 scFv
notes: Bivalent dimer of the scFv 3TF12, about 55 kDa, made in bacteria, held by a bond that DTT reduces; no Fc; also called anti-TfR F12CH; 3TF12 in the scFvCH format; not shown: tail from the bacterial vector pSYN-HIS-CYS (histidine tag, cysteine for dimerisation)
B5: scFv-3 GH9 (scFv)
scFv: QVQLAESGGGLVKPGGSLRLSCAASGFTFSDYYMSWIRQAPGKGLEWVSYISTSGSSIYYVDSVKGRFTISRDNAKNSLYLQMDSLRDDDTAVYYCARDLHGDYAFDSWGQGTLVTVSSGGGGSGGGGSGGGGSSELTQDPAVSVALGQTVRITCQGDSLRSYYASWYQQKPGQAPVLVIYGKNNRPSGIPDRFSGSKSGNSASLDISGLQSEDEADYYCATWDDNLSGPIFGGGTKVTVLG
notes: as for B1
B6: scFv-3TG9 (scFv)
scFv: QVQLVESGGGLVEPGGSLRLSCAASGFTFSNYAINWVRQAPGKGLEWVANIHHDGNGKYYVDSVEGRFTISRDNAKNSLYLQMDSLRAEDTAIYYCARDGYGGYLDLWGQGTLVTVSSGGGGSGGGGSGGGGSSELTQDPAVSVALGQTVRITCQGDSLRSYYASWYQQKPGQAPVLVIYGKNNRPSGIPDRFSGSGSGNTASLTITGAQAEDEADYYCAAWDDSLSGPVFGGGTKVTVLG
notes: as for B1

Assays:
[1] = biological target: T1, human transferrin receptor (TfR) (human, UniProt P02786 1-760); assay: FACS on LS-174T cells, scFv on phage, anti-M13 detection (FIG. 7)
T1 construct: whole, on cells; Always the endogenous receptor on human tumour cell lines; no recombinant TfR was used; also called TfR/CD71

[2] = biological target: T1, human transferrin receptor (TfR); assay: cell-based or functional assay
murine TfR [3] = biological target: T2, murine TfR (murine, UniProt Q62351 1-763); assay: flow cytometry on murine Ba/F3 cells, 10 µg/ml, anti-human Fc-phycoerythrin (FIG. 18 (b))
T2 construct: whole, on cells; Endogenous receptor on murine cell lines; also called murine transferrin receptor

murine TfR [4] = biological target: T2, murine TfR; assay: FACS on murine FMA3 cells, 50 µg/ml, penta-His detection (FIG. 16-d right)

T1 sequence (P02786 whole entry): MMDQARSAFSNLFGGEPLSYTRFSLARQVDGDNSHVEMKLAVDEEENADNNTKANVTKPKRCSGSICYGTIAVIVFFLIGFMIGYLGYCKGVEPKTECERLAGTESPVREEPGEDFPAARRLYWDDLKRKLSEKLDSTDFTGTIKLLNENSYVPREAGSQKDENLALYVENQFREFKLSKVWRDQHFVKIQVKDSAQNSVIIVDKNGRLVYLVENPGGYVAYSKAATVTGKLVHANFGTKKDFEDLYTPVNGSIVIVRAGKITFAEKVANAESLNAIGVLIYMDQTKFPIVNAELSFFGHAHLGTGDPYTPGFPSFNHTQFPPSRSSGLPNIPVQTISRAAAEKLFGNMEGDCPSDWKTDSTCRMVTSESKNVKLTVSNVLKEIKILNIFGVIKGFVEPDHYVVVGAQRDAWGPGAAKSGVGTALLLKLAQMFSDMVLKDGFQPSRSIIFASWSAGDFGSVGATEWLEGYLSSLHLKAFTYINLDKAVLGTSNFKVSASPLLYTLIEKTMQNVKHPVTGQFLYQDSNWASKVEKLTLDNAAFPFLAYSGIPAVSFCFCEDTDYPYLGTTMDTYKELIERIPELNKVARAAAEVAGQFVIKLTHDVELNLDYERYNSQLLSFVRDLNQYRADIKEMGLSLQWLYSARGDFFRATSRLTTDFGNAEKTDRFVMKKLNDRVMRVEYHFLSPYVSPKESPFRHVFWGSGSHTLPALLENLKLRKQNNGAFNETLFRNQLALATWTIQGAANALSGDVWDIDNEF
T2 sequence (Q62351 whole entry): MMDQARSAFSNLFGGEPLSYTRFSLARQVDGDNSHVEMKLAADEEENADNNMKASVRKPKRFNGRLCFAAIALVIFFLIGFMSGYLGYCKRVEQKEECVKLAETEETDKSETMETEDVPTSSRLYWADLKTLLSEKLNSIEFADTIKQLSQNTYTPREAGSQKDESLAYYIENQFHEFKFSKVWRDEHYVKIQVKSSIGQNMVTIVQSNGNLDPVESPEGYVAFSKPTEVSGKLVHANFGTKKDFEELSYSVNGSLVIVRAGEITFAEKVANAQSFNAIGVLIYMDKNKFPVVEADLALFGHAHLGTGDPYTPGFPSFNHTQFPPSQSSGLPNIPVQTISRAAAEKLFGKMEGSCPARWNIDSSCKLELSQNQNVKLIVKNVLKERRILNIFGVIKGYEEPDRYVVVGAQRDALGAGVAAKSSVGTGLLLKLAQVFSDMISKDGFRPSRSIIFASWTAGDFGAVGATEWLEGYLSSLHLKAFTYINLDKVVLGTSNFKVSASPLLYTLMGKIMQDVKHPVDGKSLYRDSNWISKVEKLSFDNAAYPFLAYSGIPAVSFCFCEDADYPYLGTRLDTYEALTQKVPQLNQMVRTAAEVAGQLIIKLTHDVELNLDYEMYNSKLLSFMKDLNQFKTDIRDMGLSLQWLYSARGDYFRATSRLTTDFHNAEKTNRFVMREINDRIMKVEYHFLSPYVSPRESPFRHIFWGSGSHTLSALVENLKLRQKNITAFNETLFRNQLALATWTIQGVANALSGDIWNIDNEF

Row | Binder | binding result [1] | IC50 (µg/ml), proliferation test on the line ERY-1, three days [2] [µg/mL] | further results
1 | B1 | binds |  | 
2 | B2 |  | 0.35 | 
3 | B3 |  |  | binding result (murine TfR [3]): binds
4 | B4 |  | 0.1 | binding result (murine TfR [4]): binds
5 | B5 | binds |  | 
6 | B6 | binds |  | 
